According to publication PMC3973318:
Where two headings read alike, the source gives them in different places.

Assays:
Experiment in all cases: EMSA
DRH-3 [1] = target: T1, DRH-3 (Caenorhabditis elegans, UniProt Q93413 1-1119)
T1 sequence: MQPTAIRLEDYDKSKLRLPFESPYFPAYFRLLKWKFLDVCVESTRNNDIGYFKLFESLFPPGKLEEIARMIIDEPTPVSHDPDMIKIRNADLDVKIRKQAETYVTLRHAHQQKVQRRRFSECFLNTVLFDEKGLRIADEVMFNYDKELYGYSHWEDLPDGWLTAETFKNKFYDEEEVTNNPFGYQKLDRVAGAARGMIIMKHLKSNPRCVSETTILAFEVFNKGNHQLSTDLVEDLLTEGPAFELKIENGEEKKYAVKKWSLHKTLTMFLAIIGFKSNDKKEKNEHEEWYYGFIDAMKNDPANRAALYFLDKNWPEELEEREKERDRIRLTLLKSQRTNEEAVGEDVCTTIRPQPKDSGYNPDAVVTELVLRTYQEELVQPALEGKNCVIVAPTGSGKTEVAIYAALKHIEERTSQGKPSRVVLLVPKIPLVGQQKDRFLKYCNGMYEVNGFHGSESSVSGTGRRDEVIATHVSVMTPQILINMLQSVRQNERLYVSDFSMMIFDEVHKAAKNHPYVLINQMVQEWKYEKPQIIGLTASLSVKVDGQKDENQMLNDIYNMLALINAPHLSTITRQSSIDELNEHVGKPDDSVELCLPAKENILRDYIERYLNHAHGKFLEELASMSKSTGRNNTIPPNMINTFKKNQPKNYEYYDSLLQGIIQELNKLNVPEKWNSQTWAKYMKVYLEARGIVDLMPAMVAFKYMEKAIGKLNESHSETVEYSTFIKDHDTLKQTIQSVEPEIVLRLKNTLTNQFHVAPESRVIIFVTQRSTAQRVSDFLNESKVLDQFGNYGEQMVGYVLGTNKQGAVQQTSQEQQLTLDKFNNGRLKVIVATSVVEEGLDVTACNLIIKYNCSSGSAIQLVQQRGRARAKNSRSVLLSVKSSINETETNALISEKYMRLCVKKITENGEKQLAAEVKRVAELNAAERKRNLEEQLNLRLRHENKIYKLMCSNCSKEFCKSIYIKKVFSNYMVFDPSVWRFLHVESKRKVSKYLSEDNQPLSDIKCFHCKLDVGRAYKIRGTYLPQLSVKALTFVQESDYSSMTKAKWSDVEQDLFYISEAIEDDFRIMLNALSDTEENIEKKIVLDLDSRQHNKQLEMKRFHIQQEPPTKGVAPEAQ

ΔN-DRH3 [2] = target: T2, ΔN-DRH3 (Caenorhabditis elegans, UniProt Q93413 300-1119)
T2 sequence: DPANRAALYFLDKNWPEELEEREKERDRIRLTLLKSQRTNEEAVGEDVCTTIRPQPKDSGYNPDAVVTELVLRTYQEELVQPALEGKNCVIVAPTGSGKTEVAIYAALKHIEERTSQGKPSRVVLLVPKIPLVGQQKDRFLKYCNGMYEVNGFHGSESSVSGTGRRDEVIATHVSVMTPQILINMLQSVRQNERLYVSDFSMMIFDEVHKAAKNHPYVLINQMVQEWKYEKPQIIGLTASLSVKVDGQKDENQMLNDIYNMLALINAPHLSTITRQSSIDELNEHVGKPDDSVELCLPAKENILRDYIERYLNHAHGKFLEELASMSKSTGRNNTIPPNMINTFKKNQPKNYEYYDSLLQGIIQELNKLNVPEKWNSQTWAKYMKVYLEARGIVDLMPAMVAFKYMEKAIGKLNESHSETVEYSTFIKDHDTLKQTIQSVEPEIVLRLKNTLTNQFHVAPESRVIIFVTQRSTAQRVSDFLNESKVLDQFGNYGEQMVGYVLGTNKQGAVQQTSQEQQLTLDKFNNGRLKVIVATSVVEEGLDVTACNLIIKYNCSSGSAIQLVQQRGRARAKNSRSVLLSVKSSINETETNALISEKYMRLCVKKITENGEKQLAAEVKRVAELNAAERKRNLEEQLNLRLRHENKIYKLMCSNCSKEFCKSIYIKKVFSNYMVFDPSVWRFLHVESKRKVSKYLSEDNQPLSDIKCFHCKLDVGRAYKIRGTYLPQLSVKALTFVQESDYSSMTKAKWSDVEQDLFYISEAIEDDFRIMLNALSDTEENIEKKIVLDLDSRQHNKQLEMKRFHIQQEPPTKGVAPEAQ

DRH-3 [3] = target: T1, DRH-3; remark: listed apart in the source
ΔN-DRH3 [4] = target: T2, ΔN-DRH3; remark: listed apart in the source
ΔN-DRH3 [5] = target: T2, ΔN-DRH3; remark: listed apart in the source
DRH-3 [6] = target: T1, DRH-3; remark: listed apart in the source
MDA-5 = target: T3, MDA-5 (human, UniProt Q9BYX4 1-1025)
T3 sequence: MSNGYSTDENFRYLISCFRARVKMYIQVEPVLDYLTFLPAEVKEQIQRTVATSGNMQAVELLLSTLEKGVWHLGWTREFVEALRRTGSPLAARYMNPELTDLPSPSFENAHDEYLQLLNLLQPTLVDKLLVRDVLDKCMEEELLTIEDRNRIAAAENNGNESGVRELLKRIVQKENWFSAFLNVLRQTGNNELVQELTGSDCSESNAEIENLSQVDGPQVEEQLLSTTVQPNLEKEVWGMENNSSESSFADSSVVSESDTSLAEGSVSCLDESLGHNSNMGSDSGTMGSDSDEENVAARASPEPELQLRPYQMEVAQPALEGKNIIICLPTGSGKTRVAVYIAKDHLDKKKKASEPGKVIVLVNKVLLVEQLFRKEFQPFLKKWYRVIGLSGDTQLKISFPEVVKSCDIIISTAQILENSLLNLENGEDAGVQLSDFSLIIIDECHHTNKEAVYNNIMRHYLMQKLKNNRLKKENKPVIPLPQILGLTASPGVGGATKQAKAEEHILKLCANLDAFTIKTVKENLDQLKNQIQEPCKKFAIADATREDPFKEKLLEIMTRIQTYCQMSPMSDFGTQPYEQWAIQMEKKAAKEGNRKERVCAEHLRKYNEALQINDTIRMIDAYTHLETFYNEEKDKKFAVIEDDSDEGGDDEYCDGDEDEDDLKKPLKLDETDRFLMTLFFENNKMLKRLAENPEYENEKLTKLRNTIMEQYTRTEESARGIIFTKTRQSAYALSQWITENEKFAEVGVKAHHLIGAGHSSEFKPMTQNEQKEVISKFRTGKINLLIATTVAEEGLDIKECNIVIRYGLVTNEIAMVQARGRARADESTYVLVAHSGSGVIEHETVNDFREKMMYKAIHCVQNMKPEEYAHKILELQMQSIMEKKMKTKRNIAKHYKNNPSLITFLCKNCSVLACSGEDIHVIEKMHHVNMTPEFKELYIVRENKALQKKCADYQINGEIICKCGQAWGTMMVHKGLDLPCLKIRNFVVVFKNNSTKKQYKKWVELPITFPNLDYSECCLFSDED

RIG-I = target: T4, RIG-I (UniProt O95786 1-925)
T4 sequence: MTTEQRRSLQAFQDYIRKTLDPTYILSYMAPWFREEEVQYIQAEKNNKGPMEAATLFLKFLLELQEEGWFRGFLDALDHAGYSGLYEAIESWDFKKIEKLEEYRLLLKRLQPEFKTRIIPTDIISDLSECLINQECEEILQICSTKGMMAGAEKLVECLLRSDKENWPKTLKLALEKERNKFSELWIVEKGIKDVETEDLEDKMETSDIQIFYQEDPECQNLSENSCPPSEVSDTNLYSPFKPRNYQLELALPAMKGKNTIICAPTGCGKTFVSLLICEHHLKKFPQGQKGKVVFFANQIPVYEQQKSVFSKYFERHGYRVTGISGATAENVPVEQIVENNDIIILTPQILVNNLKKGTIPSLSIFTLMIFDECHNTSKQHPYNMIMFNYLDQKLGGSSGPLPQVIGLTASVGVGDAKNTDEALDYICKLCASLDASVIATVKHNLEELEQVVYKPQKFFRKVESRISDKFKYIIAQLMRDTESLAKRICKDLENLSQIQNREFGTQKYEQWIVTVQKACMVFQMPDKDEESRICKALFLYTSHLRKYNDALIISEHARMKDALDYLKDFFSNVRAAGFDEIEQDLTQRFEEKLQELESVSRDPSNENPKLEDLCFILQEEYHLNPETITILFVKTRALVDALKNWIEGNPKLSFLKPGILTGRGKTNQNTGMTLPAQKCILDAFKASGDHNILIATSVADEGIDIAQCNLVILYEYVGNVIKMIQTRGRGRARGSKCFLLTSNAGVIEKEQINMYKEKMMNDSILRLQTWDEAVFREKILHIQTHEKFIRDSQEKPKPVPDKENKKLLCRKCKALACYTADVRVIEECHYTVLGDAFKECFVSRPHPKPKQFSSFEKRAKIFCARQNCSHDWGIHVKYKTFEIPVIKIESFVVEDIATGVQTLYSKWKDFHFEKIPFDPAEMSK

ΔN-DRH3 [7] = target: T2, ΔN-DRH3; remark: listed apart in the source

B1: ds18 (dsRNA)
RNA 1: GGGUAUAGACUGACUAGG
RNA 2: CCUAGUCAGUCUAUACCC
Work on B1 yielded a Kd (DRH-3 [1]) of 679 ± 135 nM.

B2: dsPPP12 (dsRNA)
RNA 1: GCCCAGACCACC
RNA 2: GGUGGUCUGGGC
modifications: 5' triphosphate on top strand
For B2, the Kd (ΔN-DRH3 [2]) was 174 ± 12 nM.

B3: ds22 (dsRNA)
RNA 1: GGGUACAGACUGACUAGGAUCG
RNA 2: CGAUCCUAGUCAGUCUGUACCC
B3 was tested, and the Kd (DRH-3 [3]) was 230 ± 7 nM.

B4: ds12 (dsRNA)
RNA 1: GCCCAGACCACC
RNA 2: GGUGGUCUGGGC
B4 gave a Kd (DRH-3 [1]) of 839 ± 53 nM and a Kd (ΔN-DRH3 [4]) of 522 ± 67 nM.

B5: ds25 (dsRNA)
RNA 1: GGGUAUAGACUGACUAGGAUCUCCC
RNA 2: GGGAGAUCCUAGUCAGUCUAUACCC
B5 was tested, and the Kd (ΔN-DRH3 [5]) was 376 ± 5 nM, the Kd (DRH-3 [6]) was 218 ± 7 nM and the Kd (MDA-5) was 123 ± 4 nM. For the same binder, the Kd (RIG-I) was 38 ± 6 nM.

B6: dsPPP25 (dsRNA)
RNA 1: GGGUAUAGACUGACUAGGAUCUCCC
RNA 2: GGGAGAUCCUAGUCAGUCUAUACCC
modifications: 5' triphosphate on top strand
Binder B6 has a Kd (ΔN-DRH3 [7]) of 120 ± 6 nM.

B7: ds34 (dsRNA)
RNA 1: GGAGUGCAUCUCCUUCCCUCCUUUCCUUCUGGUC
RNA 2: GACCAGAAGGAAAGGAGGGAAGGAGAUGCACUCC
Binder B7 has a Kd (DRH-3 [6]) of 384 ± 19 nM.
